Publication doi:10.1101/2023.11.02.565342

T1: TOPOVIBLΔC25 (monomer) (Mus musculus, UniProt J3QMY9 1-554)
T1 sequence: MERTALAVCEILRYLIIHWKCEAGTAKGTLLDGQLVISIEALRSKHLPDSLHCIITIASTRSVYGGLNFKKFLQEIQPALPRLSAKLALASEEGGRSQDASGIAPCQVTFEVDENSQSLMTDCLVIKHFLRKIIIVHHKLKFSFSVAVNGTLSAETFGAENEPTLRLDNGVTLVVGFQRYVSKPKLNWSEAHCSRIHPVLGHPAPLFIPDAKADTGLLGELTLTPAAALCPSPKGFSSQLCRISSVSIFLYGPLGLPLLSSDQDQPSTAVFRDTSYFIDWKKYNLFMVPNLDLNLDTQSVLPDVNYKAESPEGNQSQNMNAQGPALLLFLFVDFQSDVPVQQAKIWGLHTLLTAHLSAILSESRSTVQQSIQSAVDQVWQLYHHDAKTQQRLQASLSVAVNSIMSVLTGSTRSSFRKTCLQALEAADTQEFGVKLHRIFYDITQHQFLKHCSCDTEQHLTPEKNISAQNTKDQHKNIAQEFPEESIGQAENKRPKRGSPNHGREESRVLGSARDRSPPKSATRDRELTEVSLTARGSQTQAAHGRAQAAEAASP

T2: TOPOVIBLΔC25 K281E K282E (Mus musculus, UniProt J3QMY9 1-554, K281E;K282E)
T2 sequence: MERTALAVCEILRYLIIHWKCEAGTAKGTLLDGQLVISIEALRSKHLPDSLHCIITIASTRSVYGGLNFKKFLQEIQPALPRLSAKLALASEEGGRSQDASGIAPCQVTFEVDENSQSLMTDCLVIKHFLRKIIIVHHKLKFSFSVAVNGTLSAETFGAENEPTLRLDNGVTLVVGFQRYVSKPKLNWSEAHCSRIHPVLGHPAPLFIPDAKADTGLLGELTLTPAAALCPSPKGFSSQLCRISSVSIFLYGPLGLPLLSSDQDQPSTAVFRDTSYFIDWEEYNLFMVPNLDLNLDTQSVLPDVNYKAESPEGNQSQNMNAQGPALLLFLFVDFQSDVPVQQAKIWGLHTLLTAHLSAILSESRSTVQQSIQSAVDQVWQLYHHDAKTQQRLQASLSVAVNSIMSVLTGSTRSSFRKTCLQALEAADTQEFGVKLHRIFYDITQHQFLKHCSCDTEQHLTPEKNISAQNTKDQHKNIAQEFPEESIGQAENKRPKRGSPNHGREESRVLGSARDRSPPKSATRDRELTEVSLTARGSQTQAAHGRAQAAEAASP

B1: 2B70 dsDNA (dsDNA)
DNA 1: AGACAAGAGATGGCCCTTTCCAGAAGCTACCACCATCATGTCTTCTACCACTGTGCACTAATATAGTGTG
DNA 2: CACACTATATTAGTGCACAGTGGTAGAAGACATGATGGTGGTAGCTTCTGGAAAGGGCCATCTCTTGTCT
B2: 2B39 dsDNA (dsDNA)
DNA 1: CTTTCCAGAAGCTACCACCATCATGTCTTCTACCACTGT
DNA 2: ACAGTGGTAGAAGACATGATGGTGGTAGCTTCTGGAAAG
B3: U40 dsDNA (dsDNA)
DNA 1: CTATTGAAAAAGGAAGAGTATGAGTATTCAACATTTCCGC
DNA 2: GCGGAAATGTTGAATACTCATACTCTTCCTTTTTCAATAG
B4: 2B20 dsDNA (dsDNA)
DNA 1: GCTACCACCATCATGTCTTC
DNA 2: GAAGACATGATGGTGGTAGC
B5: 2B60 dsDNA (dsDNA)
DNA 1: AGAGATGGCCCTTTCCAGAAGCTACCACCATCATGTCTTCTACCACTGTGCACTAATATA
DNA 2: TATATTAGTGCACAGTGGTAGAAGACATGATGGTGGTAGCTTCTGGAAAGGGCCATCTCT

Tests used:
[1] = molecular target: HSP70 (Spodoptera frugiperda (endogenous in Sf9)); test: native MS
[2] = molecular target: T1, TOPOVIBLΔC25 (monomer); test: fluorescence anisotropy
[3] = molecular target: T2, TOPOVIBLΔC25 K281E K282E; test: fluorescence anisotropy
[4] = molecular target: T1, TOPOVIBLΔC25 (monomer); test: competition
[5] = molecular target: T1, TOPOVIBLΔC25 (monomer); test: fluorescence anisotropy; remark: listed apart in the source

| Molecule | Kd [2] [nM] | also measured |
| --- | --- | --- |
| HSP70 (natural protein) |  | stoichiometry N [1]: 2 |
| B1 | 1500 |  |
| B2 | 650 | binding signal [3]: 3 mutant/wild type Kd ratio |
| CTTTCCAGAAGCTACCACCATCATGTCTTCTACCACTGT (ssDNA) [ss2B39 (labeled)] | 310 |  |
| ACAGTGGTAGAAGACATGATGGTGGTAGCTTCTGGAAAG (ssDNA) [ss2B39 (unlabeled competitor)] |  | binding result [4]: binds |
| B3 |  | binding result [5]: binds |
| B4 | 1610 |  |
| B5 | 900 |  |
